Test results from patent US20040208873A1.

Target: recombinant human IL-8, 72 aa form (monocyte derived) (human) (UniProt P10145)
Test: cell-based or functional assay

recombinant human IL-8, 72 aa form (monocyte derived) (human), sequence (P10145 28-99 limits assumed): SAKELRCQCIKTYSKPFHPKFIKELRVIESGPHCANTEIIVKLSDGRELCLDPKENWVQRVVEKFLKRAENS

“irrelevant human isotype control antibody (Example 8)” showed an expression level of CD11b on IL-8 stimulated PMN (MFI, flow cytometry) of 2400 MFI and an expression of CD62L on IL-8 stimulated PMN (MFI, flow cytometry) of 150 MFI.
